Test results taken from the nanobody polyreactivity screen of Harvey et al. (2022).

Assay: yeast display, Sf9 membrane polyspecificity reagent, FACS + sequencing; frameworks hold sequencing errors
Method in brief: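 Genes from sorted yeast were amplified by colony PCR, read by MiSeq 2 × 250 sequencing and filtered on CDR length. These cells carried a synthetic nanobody library in Saccharomyces cerevisiae BJ5465 and were sorted by FACS into low and high (top ~1%) gates on anti-HA and streptavidin fluorescence. Polyreactivity is labelled according to the gate of origin.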
In the case of “QVQLVESGGGLVQAGGSLRLSCAASGLTLAWYAMGWYRQAPGKERELVAAISWSGDSTYYADSVKGRFTISRDNAKNTVYLQMNSLKPEDTEVYYCATRVYGGYGYWGQGTQVTVSS”, the “polyreactivity (PSR sort gate)” value is reported as “high polyreactivity”.
For “QVQLVESGGGLVQAGGSLRLSCAASGGTFSSYDMGWYRQAPGKERELVAAISWSGSSTDYADSVKGRFTISRDNAKNTVYLQMNSLKPEDTAVYYCNTDYWEITYSGVIWPEYDYWGQGTQVTVSS”, the “polyreactivity (PSR sort gate)” value was “low polyreactivity”.
With “QVQLVESGGGLVQAGGSLRLSCAASGFTFSQYAAMGWYRQAPGKERELVAAINISGSTNYADSVKGRFTISRDNAKNTVYLQMNSLKPEDTAVYYCNADVAPGIFYGYDSWGQGTQVTVSS” the “polyreactivity (PSR sort gate)” value was “low polyreactivity”.
In the case of “QVQLVESGGGLVQAGGSLRLSCAASGRIFQRNAMGWYRQAPGKERELVAAITSTGVRTYYADSVKGRFTISRDNAKNTVFLQMNSLNPEDTAVYYCAVRGERRYYGSKEDYWGQGTQVTVSS”, the “polyreactivity (PSR sort gate)” value is reported as “high polyreactivity”.
In the case of “QVQLVESGGGLVQAGGSLRLSCAASGGIFYGYAMGWYRQAPWKERELVAAISSTGGRTYYADSVKGRFTISRDNAKNTVYLQMNSLKPEVTAVYYCAAEDFTRQFEYWGQGTQVTVSS”, the “polyreactivity (PSR sort gate)” value is reported as “low polyreactivity”.
With “QVQLVESGGGLVQAGGSLRLSCAASGLIFGYYAMGWYRQAPGKERELVARITRRGGSTYYADSVKGRFTISRDNAKNTVYLQMNSLKPEDTAVYDCAADWYSPRISREYDYWGQGTQVTVSS” the “polyreactivity (PSR sort gate)” value was “high polyreactivity”.
For “QVQLVESGGGLVQAGGSLRLSCASSGFIFPLYAMGWYRQAPGKERELVAAINWRGGTTYYADSVKGRFTISRDNAKNTVYLQINSLKPDDTAVYYCAATHWAYSRVPYDYWGQGTQVSVSS”, the “polyreactivity (PSR sort gate)” value was “high polyreactivity”.
In the case of “QVQLVESGGVLVQAGGSLRLSCAASGSIFILYAMGWYRQAPGKEREFVAAITYRGGSTKYADSVKGRFTISRDNAKNNVYLQMNRLKPEDTAVYYCAAGGYWRSPWGSVSRYGYWGQGTQVTVSS”, the “polyreactivity (PSR sort gate)” value is reported as “high polyreactivity”.
With “QVQLVESGGGLVQAGGSLRLSCAASGSIFRPYAMGWSRQAPGKERELVAAISWRSGRTYYADSVKGRFTISRDNAKNTVYLQMNSLKPEDTAVYYCAADLASYAYRYDYWGQGTQVTVSS” the “polyreactivity (PSR sort gate)” value was “high polyreactivity”.
With “QVQLVESGGGLVQAGGSLRLSCAASGRIFGVNAMGWYRQAPGKERELVAAINYSGGRTSYADSVKGRFTISRDHAKNTVYLQMNSLKPEDTAVYYCAKYGLRGGYLYYYWGQGTQVTVSS” the “polyreactivity (PSR sort gate)” value was “high polyreactivity”.
For “QVQLVESGGGLVQAGGSLRLSCAASGRTFRYNTMGWYRQAPGKERELVAAITWSGGRTYYADSVKGRFTISRDNAKNTVYLQMNSLNPEDTAVYYCNADVPYSRSIYGFYYWGQGTQVTVSS”, the “polyreactivity (PSR sort gate)” value was “high polyreactivity”.
With “QVQLVESGGGLVQAGGSLRLSCAASGRIFPYYAMGWYRQEPGKEREFVAAISSSGDSTYYADSVKGRFTISRDNAKNTVYLQMNSLKPEDTPVYYCATRYRSSQWYSPYKYDYWGQGTQVTLSS” the “polyreactivity (PSR sort gate)” value was “low polyreactivity”.
For “QVQLVESGGGLVQAGGSLRLSRAASGFIFRVYAMGWYRQAPGKERELVAAITGNGVSTYYADSVKGRFTISRDNAKNTVYLQMNSLKPEDTAVYYCATYGRRWYSSRRLDYWGQGTQVTVSS”, the “polyreactivity (PSR sort gate)” value was “low polyreactivity”.
With “QVQLEESGGGLVQAGGSLRLTCAASGRILGYSAMGWYRQAPGKERELVAAISSGDSTNSADSVKGRFTISRDNAKITVYLQMNSLKPEDTAVYYCAAKGCIWNPYNYWGQGTQVTVSS” the “polyreactivity (PSR sort gate)” value was “low polyreactivity”.
With “QVQLVESGGGLVQAGGSLRLSCAASGFTFDKYAMGRYRQAPGKERDLDAGITRSGSTYYADSVKGRFTISRDNAKNTVYLQMNSLKPEDTAVYYCKARPRGSYNRPNYPRYYYCGQGTQVTVSS” the “polyreactivity (PSR sort gate)” value was “high polyreactivity”.
With “QVQLVESGGGLVQAGGSLRLSCDASGRTFFYNAMGLYRQAPGKERELVAAISKNGGNTYYADSVKGRFTISRDNAKNTVYLQMNSLKPEDTAVYYCAARQSRTGPDRNDYWGQGTQVTVSS” the “polyreactivity (PSR sort gate)” value was “high polyreactivity”.
